From US11091546B2, “Optimized PNE-based chimeric receptor T cell switches and uses thereof” (The Scripps Research Institute, priority 2015, dated 2021) come the findings set out here.

Values joined by “and” are separate entries in the source; they are usually repeats but may differ in a detail not shown here. Equal entries are not always repeated.

In series [1] the test system is Nalm-6^Luc/GFP cells. Description: Nalm-6 Luc/GFP leukemia xenograft. In kind it is in vivo. The note with it: IgG format. The method, then:
NSG mice were inoculated with CD19^+ Nalm-6^GFP/Luc cells. Six days later, 40×10^6 sCAR-T cells were delivered IV and switch dosing commenced every other day at 0.5 mg/kg for 10 days. Tumor burden was followed by luminescence after injection of luciferin and imaged on an in vivo imaging system (IVIS; PerkinElmer, Waltham, Mass., USA).
Asterisks indicate significance from LCNT Fab group. Data are represented as means±SEM, and statistical significance was calculated using the 2-way ANOVA with Bonferroni's post-test (B & E; shown for final time-point only) or by one-tailed student's t-test (C & F) where *=p<0.05, **=p<0.01 and ***=p<0.001.
NSG mice were inoculated with Nalm-6^GFP/Luc as described in FIG. 28. […] A fourth group consisted of two cohorts (n=3) of mice injected I.V. with sCAR-T cells without (−) LCNT Fab switch. LCNT Fab dosing in the indicated group was carried out daily at 0.5 mg/kg after the initial T cell infusion. Luminescence was measured at 6 h and subsequently every 24 h as indicated. Cohorts were sacrificed for analysis immediately following IVIS imaging. […] Gray lines indicate tumor burden in PBS and sCAR-T cell—LCNT Fab controls. […] Data are represented as means±SEM, and statistical significance was calculated using the one-tailed student's t-test (C & D) where *=p<0.05, **=p<0.01 and ***=p<0.001.
NSG mice were inoculated with Nalm6^GFP/Luc and six days later engrafted with short-dimeric sCAR-T cells as described in FIG. 29. […] Dosing was carried out for 15 d starting at day 6 (corresponding with sCAR-T cell infusion) as indicated by gray shading. Control groups CART-19 and PBS received no switch. The NS group received sCAR-T cells but no switch. Open circles denote the death of individual mice without evidence of tumor burden and may reflect GVHD. Triangles in PBS, NS and q.a.d. group indicate death due to increasing tumor burden. […] (19) indicates CART-19. […] (19) indicates CART-19. […] Triangles indicate the death of individual mice with significant tumor burden. The single mouse death in the 0.05 mg/kg group occurred while tumor burden was decreasing. […] Statistical significance was calculated using the one-tailed student's t-test (B, C & E) where *=p<0.05, **=p<0.01 and ***=p<0.001.
The different sCAR designs were tested in a xenograft model harboring luciferized NALM-6 (CD19+, CD80−, CD86−) cells. 1 mg/kg monovalent switch “A” was administered along with sCAR cells. […] Optimized hinge improved response. Short hinge CARs have faster clearance. Short, dimeric hinge CARs have improved persistence. Tumor burden was visualized with IVIS imaging. Experiments are repeated with a humanized scFv and bivalent switches.
Activity of the switchable CAR-T cell platform in vivo was evaluated via tumor regression in a Nalm-6^Luc/GFP leukemia xenograft model in immunodeficient NOD scid gamma (NSG) mice. These mice without treatment succumb to disease within 21 days. The impact of CAR hinge design on in vivo efficacy was determined using mice inoculated with Nalm-6^Luc/GFP, followed by I.V. injection of long, short, or short-dimeric sCAR-T cells 6 days later. The LCNT Fab was dosed I.V. (0.5 mg/kg) every other day for 10 days and tumor regression was followed by in vivo imaging (IVIS) of the luciferase signal from Nalm-6^Luc/GFP cells (FIG. 29A).
The effect of switch grafting position on the control of tumor burden was determined. As with the previous model, short-dimeric CAR-T cells were injected 6 days after tumor inoculation and mice were treated every other day (starting at day 6) with 0.5 mg/kg LCNT, HCNT, NTBV, LCC1, or HCCT Fab switches (FIG. 29D).
To determine the proliferation and localization of sCAR-T cell cytotoxicity during this time interval, mice were sorted into 5 cohorts per treatment regimen and analyzed at 8, 24, 48, 72, and 96 h after treatment with short-dimeric sCAR-T cells+LCNT Fab switch or with conventional CART-19 and no switch. […]

For series [2], the system named is MOLM14 cell line. The experiment in a line: Cytokines in cytotoxicity assay supernatant (CBA Human Th1/Th2 II Kit). In kind it is cell-based. The note with it: duplicates. The arrangement: unit not given here. An excerpt: (§1) FIG. 38A illustrates multiple fusion/grafting locations: A=LCNT1 (light chain N terminus version 1), B=HCNT3 (heavy chain N terminus version 3), C=heavy chain C terminus, and D=light chain C terminus). […] Data shown are an average of duplicate samples, and error bars represent SD. Only the NT switches plus the BvCT and By CH1CL1 as references are depicted.
(§2) Monovalent and bivalent combinations of these switches were expressed and tested in cytotoxicity assays at a dose titration within the range of 0.4 nM to 0.0001 nM. […] Data shown are an average of duplicate samples, and error bars represent SD. Only the NT switches plus the BvCT and By CH1CL1 as references are depicted. cytokine secretion was measured.

Series [3] concerns CD33+ MOLM14 cells. Description: Cytotoxicity assay, sCAR-T cells + anti-CD33 (hP67.6) switches. In kind it is cell-based. Set-up: unit not given here. The note with it: duplicates.
From the text: as §1, §2

For series [4], the system named is CD123+ MOLM14 cells. Description: Flow cytometry based cytotoxicity assay, sCAR-T cells + anti-CD123 Fab switches. The settings on record: duplicates. In kind it is cell-based. As to the method:
as §1
The flow cytometry based cytotoxicity assay were performed in RPMI-1640 media supplemented with 5% heat inactivated FBS, 1% Pen/Strep, 1% glutamine, and 1% Sodium pyruvate. Target cells (2×10^4 cells) were pre-labeled with CellVue Claret Far Red Fluorescent Cell linker (Sigma-Aldrich) and co-cultured with 1×10^5 sCAR-T cells. Variable concentration of switch was added to assess in vitro activity. This assay was conducted in a volume of 100 ul in 96-well U bottom plate for 24 hours, after which the cells were stained with 7-AAD viability dye (1:100; BD Biosciences) in FACs staining buffer (PBS with 2 mM EDTA and 1% FCS) and acquired on BD Accuri C6 flow cytometer. The viability was calculated as following formula: […]=[(no switch viable target cells-experimental viable target cells)/no switch viable target cells]*100
Activity was confirmed by flow cytometry based cytotoxicity assay (FIG. 38J & FIG. 38K). FIG. 38J and Table 31. […] FIG. 38K and Table 32.
In general terms: In flow cytometry, cells or beads pass a laser one at a time.

On to “anti-CD19 IgG LCNT: FMC63 anti-CD19 IgG, peptide on N-terminus of light chain (SEQ ID 36 & 28)”, for which the “tumor burden (IVIS)” value in series [1] (0.5 mg/kg every 5 days for 15 days (3 doses)) was “unable to significantly control tumor burden”. Besides, the tumor growth result in series [1] (1 mg/kg every day for 10 d) is listed as “unable to control tumor growth”.

“hP67.6 LCNT: anti-CD33 hP67.6 Fab, GCN4 on light chain N-terminus, GGGGS linker (SEQ ID 217 & 232)”: the “IFNg in supernatant (FIG. 38H)” value in series [2] is 448.47 and 374.76. The “Il-2 in supernatant (FIG. 38H)” value in series [2] is 328.62 and 234. For the same molecule, the “TNFa in supernatant (FIG. 38H)” value in series [2] is 53.4 and 44.84. Besides, the “cytotoxicity (FIG. 38G)” value in series [3] (switch 0.1 pM) was 0; in series [3] (switch 0.64 pM), 5.9 and 4.6; in series [3] (switch 3.2 pM), 36.9 and 35.9; in series [3] (switch 16 pM), 58.7 and 59.2; in series [3] (switch 80 pM) it was 66 and 66.5; in series [3] (switch 400 pM), 59.5 and 60.9.

Regarding “hP67.6 NTBV: anti-CD33 hP67.6 Fab, N-terminal bivalent (SEQ ID 217 & 220)”, the “IFNg in supernatant (FIG. 38H)” value in series [2] was 957.81 and 958.26. The “Il-2 in supernatant (FIG. 38H)” value in series [2] is 936.57 and 898.28. The “TNFa in supernatant (FIG. 38H)” value in series [2] is 98.48 and 97.95. Also, the “cytotoxicity (FIG. 38G)” value in series [3] (switch 0.1 pM) was 0; in series [3] (switch 0.64 pM), 0.9 and 0.8; in series [3] (switch 3.2 pM), 23.6 and 28.4; in series [3] (switch 16 pM), 55.4 and 57.1; in series [3] (switch 80 pM), 69.7 and 69.2; in series [3] (switch 400 pM), 69.3 and 69.5.

B1: 26292 NTBv: anti-CD123 clone 26292 Fab, N-terminal bivalent (protein)
light: NYHLENEVARLKKLGGGGSDVQITQSPSYLAASPGETITINCRASKSISKDLAWYQEKPGKTNKLLIYSGSTLQSGIPSRFSGSGSGTDFTLTISSLEPEDFAMYYCQQHNKYPYTFGGGTKLEIRTVAAPSVFIFPPSDEQLKSGTASVVCLLNNFYPREAKVQWKVDNALQSGNSQESVTEQDSKDSTYSLSSTLTLSKADYEKHKVYACEVTHQGLSSPVTKSFNRGEC
heavy: NYHLENEVARLKKLLVGEAAAKEAAAKAQVQLQQPGAELVRPGASVKLSCKASGYTFTSYWMNWVKQRPDQGLEWIGRIDPYDSETHYNQKFKDKAILTVDKSSSTAYMQLSSLTSEDSAVYYCARGNWDDYWGQGTTLTVSSARTKGPSVFPLAPSSKSTSGGTAALGCLVKDYFPEPVTVSWNSGALTSGVHTFPAVLQSSGLYSLSSVVTVPSSSLGTQTYICNVNHKPSNTKVDKKVEPKSC
Turning to B1, the “Percent of cytotoxicity in target cells” value was 0% in series [4] (FIG. 38J, clone 26292, switch 0.01 pM); 2% and 3.4% in series [4] (FIG. 38J, clone 26292, switch 0.128 pM); 7.4% and 6.4% in series [4] (FIG. 38J, clone 26292, switch 0.64 pM); 9.8% and 4.1% in series [4] (FIG. 38J, clone 26292, switch 3.2 pM); 16.5% and 19.3% in series [4] (FIG. 38J, clone 26292, switch 16 pM); 31.4% and 33.2% in series [4] (FIG. 38J, clone 26292, switch 80 pM). For the same molecule, the “Percent of cytotoxicity in target cells” value in series [4] (FIG. 38J, clone 26292, switch 400 pM) is 57.5% and 55.5%; in series [4] (FIG. 38J, clone 26292, switch 2000 pM), 64.2% and 62.1%; in series [4] (FIG. 38J, clone 26292, switch 10000 pM), 55.3% and 57.4%.

B2: 32716 NTBv: anti-CD123 clone 32716 Fab, N-terminal bivalent (protein)
light: NYHLENEVARLKKLGGGGSDIVLTQSPASLAVSLGQRATISCRASESVDNYGNTFMHWYQQKPGQPPKLLIYRASNLESGIPARFSGSGSRTDFTLTINPVEADDVATYYCQQSNEDPPTFGAGTKLELRTVAAPSVFIFPPSDEQLKSGTASVVCLLNNFYPREAKVQWKVDNALQSGNSQESVTEQDSKDSTYSLSSTLTLSKADYEKHKVYACEVTHQGLSSPVTKSFNRGEC
heavy: NYHLENEVARLKKLLVGEAAAKEAAAKAQIQLVQSGPELKKPGETVKISCKASGYIFTNYGMNWVKQAPGKSFKWMGWINTYTGESTYSADFKGRFAFSLETSASTAYLHINDLKNEDTATYFCARSGGYDPMDYWGQGTSVTVSSARTKGPSVFPLAPSSKSTSGGTAALGCLVKDYFPEPVTVSWNSGALTSGVHTFPAVLQSSGLYSLSSVVTVPSSSLGTQTYICNVNHKPSNTKVDKKVEPKSC
Turning to B2, the “Percent of cytotoxicity in target cells” value in series [4] (FIG. 38K, clone 32716, switch 0.01 pM) is 0%; in series [4] (FIG. 38K, clone 32716, switch 0.128 pM), 2.2% and 3.1%; in series [4] (FIG. 38K, clone 32716, switch 0.64 pM), 1.6% and −6.4%; in series [4] (FIG. 38K, clone 32716, switch 3.2 pM), 6.4% and 0.2%; in series [4] (FIG. 38K, clone 32716, switch 16 pM), 13.7% and 12.6%; in series [4] (FIG. 38K, clone 32716, switch 80 pM), 27% and 28.5%. Moreover, the “Percent of cytotoxicity in target cells” value in series [4] (FIG. 38K, clone 32716, switch 400 pM) is 50.9% and 44.5%; in series [4] (FIG. 38K, clone 32716, switch 2000 pM), 60.9% and 55.7%; in series [4] (FIG. 38K, clone 32716, switch 10000 pM), 58.3% and 51%.
